Data as given in patent US7018836.

Key:
[1] = target: human P-TEFb from HeLa extract, detected through its kinase subunit PITALRE (human); test: cell-based or functional assay
GST-Tat 1 86R = GST-Tat 1 86R (UniProt P04608)

human P-TEFb from HeLa extract, detected through its kinase subunit PITALRE (human), sequence (P50750 whole entry): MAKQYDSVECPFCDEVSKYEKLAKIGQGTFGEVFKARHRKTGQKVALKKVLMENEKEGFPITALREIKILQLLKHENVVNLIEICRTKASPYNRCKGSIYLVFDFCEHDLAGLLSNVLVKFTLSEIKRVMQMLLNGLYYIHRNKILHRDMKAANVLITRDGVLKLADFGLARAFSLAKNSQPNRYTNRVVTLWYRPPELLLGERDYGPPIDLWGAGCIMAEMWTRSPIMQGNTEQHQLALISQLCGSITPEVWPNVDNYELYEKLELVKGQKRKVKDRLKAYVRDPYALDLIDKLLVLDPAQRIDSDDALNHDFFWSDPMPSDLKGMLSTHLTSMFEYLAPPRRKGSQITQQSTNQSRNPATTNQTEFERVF
GST-Tat 1 48Δ, sequence (P08515 1-218, tags or fused parts left off): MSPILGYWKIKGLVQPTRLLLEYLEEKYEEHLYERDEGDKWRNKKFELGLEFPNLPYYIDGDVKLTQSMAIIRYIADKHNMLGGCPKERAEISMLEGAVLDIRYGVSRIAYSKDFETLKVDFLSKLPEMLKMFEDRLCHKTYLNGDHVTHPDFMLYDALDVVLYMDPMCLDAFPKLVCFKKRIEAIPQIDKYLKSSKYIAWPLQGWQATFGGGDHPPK

## 86 residue HIV-1 Tat followed by a streptavidin binding tag at its carboxyl terminus (from UniProt P04608 1-86)
[1]
  runoff transcription from the HIV-1 LTR TAR template in HNE, continuous labeling: 12 fold

## GST-Tat 1 48Δ (from UniProt P08515 1-218; P04608 1-48)
[1]
  TAK activity (assayed by GST-Tat48A pull-down) after depletion of human P-TEFb from HNE by antibodies to PITALRE: < 2%

## human P-TEFb from HeLa extract, detected through its kinase subunit PITALRE
GST-Tat 1 86R
  phosphorylation of the CTD of RNA polymerase II: The GST-Tat 1 86R/P-TEFb protein complex can phosphorylate the CTD of RNA polymerase II
